Source: US7790682B1, “Engineered human acidic fibroblast growth factors and associated methods” (The Florida State University Research Foundation, Inc., priority 2003, dated 2010)

Key:
[1] = Folding and unfolding kinetics (Chevron plot, stopped-flow CD, GuHCl); format: physicochemical; conditions: for kf: folding rate constant extrapolated to 0M GuHCl; for kf / ku: global Chevron fit; for ΔΔG‡-D / ΔΔG‡-N: in reference to WT*; for ΔΔG‡-D: positive value = decrease in folding activation barrier; for ΔΔG‡-N: positive value = decrease in unfolding activation barrier; for mf: slope of ln(kf) vs GuHCl; for mu: slope of ln(ku) vs GuHCl; for ku: unfolding rate constant extrapolated to 0M GuHCl
Description: Due to signal-to-noise considerations, relatively high protein concentrations (>100 μM) of FGF-1 were required for kinetic studies monitored by CD. At these concentrations protein precipitation occurred in ADA buffer. Therefore, a different buffering system was chosen for the kinetic studies to permit higher protein concentrations without precipitation. Protein samples were dialyzed against 50 mM sodium phosphate, 100 mM NaCl, 10 mM ammonium sulfate, 2 mM DTT, and typically 2.5, 3.0 or 3.8M GuHCl pH 7.5 overnight at 298K prior to data collection (higher concentrations of GuHCl were required to ensure complete denaturation for some stabilizing mutations).
Protein samples were degassed for 10 minutes prior to analysis. Refolding was initiated by a 1:10 dilution of protein solutions into 50 mM sodium phosphate, 100 mM NaCl, 10 mM ammonium sulfate, 2 mM DTT pH 7.5 containing either 0.1M or 0.05M increments of GuHCl up to the midpoint of denaturation. All data were collected using an Aviv model SF305 stopped flow system. Data collection times for each protein were designed to quantify the CD signal over 5 half-lives, or >96% of the total expected amplitude.
Protein samples (300 μM) were dialyzed against 50 mM sodium phosphate, 100 mM NaCl, 10 mM ammonium sulfate, 2 mM DTT pH 7.50 buffer overnight at 298K, and degassed for 10 min prior to data collection. Unfolding was initiated by 1:10 dilution of the native protein into 50 mM sodium phosphate, 100 mM NaCl, 10 mM ammonium sulfate, 2 mM DTT pH 7.5 buffer with final GuHCl concentration in the range of 1.5 to 5.5M in 0.5M increments. The unfolding process was quantified by following the change in CD signal at 227 nm, and data collection times for each protein were designed so as to monitor the CD signal over 3 to 4 half-lives, or >93% of the total expected amplitude.
Triplicate scans were collected for both folding and unfolding kinetic data at each GuHCl buffer condition. In all cases, data from at least three separate experiments were averaged. The kinetic rates and amplitudes versus denaturant concentration were calculated from the time dependent change in CD signal using a single exponential model: I(t)=Aexp(−kt)+C (3) where I(t) is the intensity of CD signal at time t, A is the corresponding amplitude, k is the observed rate constant for the reaction and C is a constant that is the asymptote of the CD signal. Folding and unfolding rate constant data were fit to a global function describing the contribution of both rate constants to the observed kinetics as a function of denaturant (“Chevron” plot): In(kobs)=In(kf0exp(mkfD)+ku0exp(mkuD)) (5) where kf0 and ku0 are the folding and unfolding rate constants, respectively, extrapolated to 0M denaturant, mkf and mku are the slopes of the linear functions relating In(kf) and In(ku), respectively, to D, the denaturant concentration. Changes in activation barriers upon mutation were calculated using a modified version of transition state theory: ΔΔG‡-D=RTIn(kf Mut/kfWT*) and ΔΔG‡-N=RTIn(ku Mut/kuWT*) (6) where kf Mut, ku Mut, kf WT* and ku WT* are the folding and unfolding rates for mutant and WT*, respectively, in water. ΔΔG‡-D, and ΔΔG‡-N are the changes in the activation barrier for folding and unfolding, respectively, between mutation and WT*. A positive value for ΔΔG‡-D or ‡‡G‡-N indicates a decrease in the associated activation barrier energy. Isothermal Titration Calorimetry.
Due to the relatively weak differential CD signal of native and denatured FGF-1, the folding kinetics study required relatively high protein concentrations (>5 mg/ml). […] Thus, the refolding rate constants were not obtainable below certain denaturant concentrations for these mutants. […] The SYM6Δ120-122 mutant is substantially destabilized relative to the WT* protein (see Table II) and presents a relatively short “folding arm” in the Chevron plot, for this reason there is greater uncertainty associated with the folding kinetics determined for this mutant. […]

[2] = Isothermal equilibrium denaturation in guanidine HCl monitored by CD; format: physicochemical; conditions: for Cm / m-value / ΔG0: GuHCl, 298K, CD signal at 227 nm; for ΔΔG: relative to WT*, negative value = more stable
Description: Protein samples were equilibrated overnight in 20 mM N-2-(acetamido)iminodiacetic acid (ADA), 100 mM NaCl pH 6.60 at 298K in 0.1M increments of guanidine HCl (GuHCl). All samples contained a final protein concentration of 25 μM. An Aviv model 202 circular dichroism spectrometer (Proterion Corp., Piscataway, N.J.) equipped with a Peltier controlled temperature unit maintaining a constant temperature of 298K was used for all spectroscopic measurements. For each sample, triplicate scans were collected and averaged. Buffer traces were collected, averaged and subtracted from the sample traces. Data smoothing was performed prior to buffer subtraction using a 5-point Fourier transform filter. The denaturation process was monitored by observing the change in CD signal at 227 nm with increasing GuHCl, according to published references. The general purpose non-linear least squares fitting program DataFit™ (Oakdale Engineering, Oakdale Pa.) was used to fit the change in molar ellipticity at 227 nm versus GuHCl concentration to a six parameter two state model: F=(F0N+SN[D]+F0D+SD[D])e^−((ΔG0+m[D]/RT)/1+e^−((ΔG0+m[D]/RT) (1) where [D] is the denaturant concentration, F0N and F0D are the 0M denaturant molar ellipticity intercepts for the native and denatured states, respectively, and SN and SD are the slopes of the native and denatured state baselines, respectively. ΔG0 and m describe the linear function of the unfolding free energy versus denaturant concentration at 298K. The effect of a given mutation upon the stability of the protein (ΔΔG) was calculated by taking the difference between the Cm values for WT* and mutant and multiplying by the average of the m values, as described by Pace and Scholtz (Measuring the conformational stability of a protein; in Protein Structure: A Practical Approach, Creighton, T. E., ed., pp. 299-321, Oxford University Press, Oxford; 1997): ΔΔG=(CmWT*−Cm mutant)(mWT*+mmutant)/2 (2) Folding Kinetics Measurements.
Previous studies by others of the stability and folding of FGF-1 have been performed by monitoring the fluorescence signal of the single buried Trp 107 in FGF-1. This Trp in the WT* structure is somewhat unusual in that it is more highly quenched in the native state than the denatured. […] We have previously compared the fluorescence and CD spectroscopic response of FGF-1 to denaturation by GuHCl and shown essentially indistinguishable results for both his-tagged and non-his-tagged forms. A tabulation of the mutant thermodynamic data from isothermal equilibrium denaturation, monitored by CD signal, is listed in Table II. The data in this table for the SYM6 mutant are from our previously published isothermal equilibrium denaturation study monitored by fluorescence.

Molecule | folding behavior ([1]; all denaturant concentrations evaluated) | kf [1] [s⁻¹] | ΔΔG‡-D [1] [kcal/mol] | ΔΔG‡-N [1] [kcal/mol] | mf [1] [M⁻¹] | mu [1] [M⁻¹] | ku [1] | Cm [2] [M] | m-value [2] [kJ/mol M] | ΔG0 [2] [kcal/mol] | ΔΔG [2] [kcal/mol] | stability of the actual combination mutant ([2]; relative to the SYM5 protein) [kcal/mol]
SYM5/ΔΔ: SYM5 FGF-1 mutant plus both Δ104-106 and Δ120-122 deletion mutations (protein, UniProt P05230 16-155, looked up, variant L44F L73V V109L L111I C117V A103G del104-106 R119G del120-122) Fibroblast growth factor 1: FNLPPGNYKKPKLLYCSNGGHFLRILPDGTVDGTRDRSDQHIQFQLSAESVGEVYIKSTETGQYLAMDTDGLVYGSQTPNEECLFLERLEENHYNTYISKKHGWFLGIKKNGSVKGTHYGQKAILFLPLPVSSD | single exponential folding behavior | 40.4 | 1.48 | 0.146 | -4.57 | 0.66 | 0.88 1 × 10^−3 sec^−1 | 1.89 ± 0.01 | 18.1 ± 0.7 | 8.17 ± 0.287 | -3.8 | -3.61
SYM6/Δ104-106: SYM6 FGF-1 mutant plus Ala103→Gly/ΔGlu104/ΔLys105/ΔAsn106 (protein, UniProt P05230 16-155, looked up, variant A103G E104* K105* N106*, SYM6 background mutations, SYM6 FGF-1 mutant plus Ala103→Gly/ΔGlu104/ΔLys105/ΔAsn106) Fibroblast growth factor 1: FNLPPGNYKKPKLLYCSNGGHFLRILPDGTVDGTRDRSDQHIQLQLSAESVGEVYIKSTETGQYLAMDTDGLLYGSQTPNEECLFLERLEENHYNTYISKKHGWFVGLKKNGSCKRGPRTHYGQKAILFLPLPVSSD |  | 30.1 | 1.31 | 0.935 | -5.41 | 0.94 | 3.33 1 × 10^−3 sec^−1 | 1.21 ± 0.01 | 16.9 ± 0.5 | 4.9 ± 0.12 | -0.669 | 
SYM6/Δ120-122: SYM6 FGF-1 mutant plus Arg119→Gly/ΔGly120/ΔPro121/ΔArg122 (protein, UniProt P05230 16-155, looked up, variant L44F M67I L73V V109L L111I C117V R119G del120-122) Fibroblast growth factor 1: FNLPPGNYKKPKLLYCSNGGHFLRILPDGTVDGTRDRSDQHIQFQLSAESVGEVYIKSTETGQYLAIDTDGLVYGSQTPNEECLFLERLEENHYNTYISKKHAEKNWFLGIKKNGSVKGTHYGQKAILFLPLPVSSD |  | 17.3 | 0.98 | 1.45 | -9.45 | 0.86 | 7.95 1 × 10^−3 sec^−1 | 0.79 ± 0.01 | 20.0 ± 0.2 | 3.75 ± 0.048 | 1.29 | 
